Laboratory results reported in patent publication US20210347913A1 (CRISPR THERAPEUTICS, published 2021).

T1: PTK7 on PTK7 positive cell line SaOS-2 (osteosarcoma) (UniProt Q13308 31-1070, limits assumed)
T1 sequence (looked up): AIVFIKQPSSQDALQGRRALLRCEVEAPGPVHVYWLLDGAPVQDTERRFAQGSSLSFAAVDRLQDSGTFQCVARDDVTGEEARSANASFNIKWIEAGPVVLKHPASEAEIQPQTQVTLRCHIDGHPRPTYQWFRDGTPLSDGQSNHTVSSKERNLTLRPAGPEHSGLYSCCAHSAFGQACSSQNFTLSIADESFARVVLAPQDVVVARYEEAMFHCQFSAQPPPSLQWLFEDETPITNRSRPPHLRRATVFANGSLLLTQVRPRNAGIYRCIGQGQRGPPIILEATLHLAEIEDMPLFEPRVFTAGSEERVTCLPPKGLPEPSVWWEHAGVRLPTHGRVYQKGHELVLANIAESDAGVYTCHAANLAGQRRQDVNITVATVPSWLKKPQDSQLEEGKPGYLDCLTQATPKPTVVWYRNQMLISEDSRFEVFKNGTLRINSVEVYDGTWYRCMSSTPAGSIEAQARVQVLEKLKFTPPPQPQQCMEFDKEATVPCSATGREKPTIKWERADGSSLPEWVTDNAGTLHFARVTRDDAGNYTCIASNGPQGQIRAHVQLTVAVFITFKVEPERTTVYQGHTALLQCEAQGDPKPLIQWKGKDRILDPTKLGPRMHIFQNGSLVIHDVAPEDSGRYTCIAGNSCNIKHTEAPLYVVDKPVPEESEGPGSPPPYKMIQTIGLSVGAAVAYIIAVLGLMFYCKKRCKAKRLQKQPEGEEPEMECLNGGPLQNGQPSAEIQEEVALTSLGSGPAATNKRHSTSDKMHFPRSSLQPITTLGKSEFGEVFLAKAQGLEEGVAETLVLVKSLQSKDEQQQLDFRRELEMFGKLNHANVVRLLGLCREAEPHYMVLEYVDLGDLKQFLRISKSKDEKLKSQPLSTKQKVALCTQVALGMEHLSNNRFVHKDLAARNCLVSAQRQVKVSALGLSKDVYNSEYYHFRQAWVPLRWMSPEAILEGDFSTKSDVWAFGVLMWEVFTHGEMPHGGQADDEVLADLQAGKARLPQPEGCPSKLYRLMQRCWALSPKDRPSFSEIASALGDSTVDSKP

T2: recombinant human PTK7.Fc (R and D Systems, catalog #9799-TK) (human, UniProt Q13308 31-704, limits assumed)
T2 construct: Bought reagent; also called soluble recombinant human PTK7.Fc; soluble antigen PTK7; not shown: Fc part of the bought fusion (detected with anti-human Fc)
T2 sequence (looked up): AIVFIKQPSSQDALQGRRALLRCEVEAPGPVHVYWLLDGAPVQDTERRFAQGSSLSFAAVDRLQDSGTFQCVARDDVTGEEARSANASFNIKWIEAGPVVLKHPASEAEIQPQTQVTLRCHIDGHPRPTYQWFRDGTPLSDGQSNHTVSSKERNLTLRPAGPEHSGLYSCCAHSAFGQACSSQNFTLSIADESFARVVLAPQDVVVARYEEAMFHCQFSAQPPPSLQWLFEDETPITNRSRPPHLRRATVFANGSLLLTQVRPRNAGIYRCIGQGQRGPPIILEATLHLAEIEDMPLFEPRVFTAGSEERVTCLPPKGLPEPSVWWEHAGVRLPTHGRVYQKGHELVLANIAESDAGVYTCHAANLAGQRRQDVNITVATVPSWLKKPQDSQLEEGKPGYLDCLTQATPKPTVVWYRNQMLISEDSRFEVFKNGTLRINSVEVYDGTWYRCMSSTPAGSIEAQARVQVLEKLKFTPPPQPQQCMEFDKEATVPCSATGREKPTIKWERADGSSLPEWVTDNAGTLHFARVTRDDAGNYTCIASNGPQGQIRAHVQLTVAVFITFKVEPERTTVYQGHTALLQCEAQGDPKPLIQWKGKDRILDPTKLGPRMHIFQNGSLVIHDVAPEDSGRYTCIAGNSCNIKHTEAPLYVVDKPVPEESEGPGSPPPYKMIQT


Tests used:
[1] = biological target: T1, PTK7 on PTK7 positive cell line SaOS-2 …; experiment: cell-based or functional assay
[2] = biological target: T1, PTK7 on PTK7 positive cell line SaOS-2 …; experiment: cell-based or functional assay; remark: listed apart in the source
[3] = biological target: T2, recombinant human PTK7.Fc (R and D …); experiment: flow cytometry, percent of CAR T cells positive for 10 ug/mL PTK7.Fc
Description: In addition to detecting surface CAR expression, the ability of the CAR T cells and masked CAR T cells to detect target antigen was also determined. Live CAR T cells were gated by their forward scatter (FSC) and side scatter (SSC) profiles, and with DAPI dye (Invitrogen, catalog #: D3571). The cells were then stained with 10 μg/mL recombinant human PTK7.Fc (R and D Systems, catalog #9799-TK Lot DHMCO219041) as described above in Example 3, and with mouse anti-human.Fc conjugated to APC (Biolegend cat #409305) as secondary antibody for detection (FIG. 3).

[4] = biological target: T3, anti-PTK7 antibody Ab181; experiment: phage display selection of peptide binders of Ab181 (Screen 1, X15/X19 library)
T3 construct: Unmasked parent IgG1kappa; also called Ab181 IgG1kappa

Row | Binder | % Cell killing at E:T = 1:0.5 [1] [%] | % Cell killing at E:T = 1:1 [1] [%] | IFNγ (pg/mL) at E:T = 1:0.5 [2] [pg/mL] | IFNγ (pg/mL) at E:T = 1:1 [2] [pg/mL] | % Antigen detection [3] [%] | binding result [4]
1 | CTX181.P1 (other, Masked chimeric antigen receptor on the surface of TRAC-/B2M- human T cells; entry without signal peptide; also called masked anti-PTK7 CAR P1) EVAPGKRWFYNHVKQVPHLVGSSGGSGGSGGSGGGPLGLAGGSSGQVQLVESGGGVVQPGRSLRLSCAASGFTFSSYGMHWVRQAPGKGLEWVAVIWDDGSNKYYVDSVKGRFTISRDNSKNTLYLQMNSLRAEDTAVYYCARDDYYGSGSFNSYYGTDVWGQGTTVTVSSGGGGSGGGGSGGGGSEIVLTQSPATLSLSPGERATLSCRASQSVSIYLAWYQQKPGQAPRLLIYDASNRATGIPARFSGSGSGTDFTLTISSLEPEDFAVYYCQQRSNWPPFTFGPGTKVDIKSAAAFVPVFLPAKPTTTPAPRPPTPAPTIASQPLSLRPEACRPAAGGAVHTRGLDFACDIYIWAPLAGTCGVLLLSLVITLYCNHRNRKRGRKKLLYIFKQPFMRPVQTTQEEDGCSCRFPEEEEGGCELRVKFSRSADAPAYQQGQNQLYNELNLGRREEYDVLDKRRGRDPEMGGKPRRKNPQEGLYNELQKDKMAEAYSEIGMKGERRRGKGHDGLYQGLSTATKDTYDALHMQALPPR | 92.7 | 79.1 | 13600 | 20500 | 42.7 | –
2 | HEEVHMRPNKLSLTWAYTGPQLR (Found by phage display (Screen 1); fused through a cleavable linker in the masked constructs) [mask peptide P2] | – | – | – | – | – | binds
3 | EVAPGKRWFYNHVKQVPHLV (Found by phage display (Screen 1)) [mask peptide P1] | – | – | – | – | – | binds
